According to the DeepSol protein solubility set:

Test: soluble on expression in E. coli; label from the status in PepcDB or PDB records

| Sequence | soluble on expression in E. coli |
| --- | --- |
| MPTPFRDLHNKSNASASSYETAWSSSFSSRRSTNNDSKSNLKEIKDEPISNLDESISILENNISMMSVSSPTPAYRTPARVIAREAPMTPGDRLLQKIEKEDERDMLRQLYPEMFDSNQKPRQKPKEVKKALKVESLSDYENDDKENVPPCGKPSKEKEEKKQRTKKIVISSDSEDDGNFENYLKTLREKPTEPAKPERKIPVKKDFVVDDDYISEESSEEESEEEEEDVDDEEYRESSPEVEAKISYSDRKQKKRPTDEEEWFLLSLSEKFSGPIHEDAKVYIKETSLRYKKHRESLLTRLQDILVRRIFSAIPSEKLKVIWNARLRKSAGQCRNHSNGNSTVEMSPVVCTTAERVRDTLIHELCHAATWVVDRLHKEGHGPGWKRWGARCSSVFKSLPFIERCHSYEIEAKFFYVCEKDGCDVEIKRQSKSLDTSRKACGRCFGRFILYRYCRRTNTRIRIEDPKAKPVGPILSNSSKPSPPAPRRIVSEHPEGFKEYSEEHYWKYTAQGLKHSDVMGKLLKEFKELKQL | not soluble |
| RPLQGEATNLTDNTIFRIRQLKGTWNLLIIDSGKCEEYCQEKLYTLRQVRLAQHVDKDKVQRVWLINDDIRPDQETIDKFKGTRLVLANGKDLLKEFPAENKREDHIYVVDPMGNLMMRYPRNADPRKMVGDLKRLLKLSHLEH | not soluble |
| METTLVIIRGNSGSGKTTLAQALQRRVGHHTLLVSQDVVRRDMLMSHDYPGNISIGLIEQIVCYGLGRVPVVIVEGILARDRYGKMLARLSQSFPRVLTYYFEVSFATTLARHQKRHRDFGVEDMRRWWLPHDTLGVANEVLIGEQQDLTTEVQQIMTTIHDCDLEHHHHHH | not soluble |
| MGSDKIHHHHHHMAGKQLLLMDGIHKRFGPLIVSAGVTLDVEENEIHALLGENGAGKTVLMSILCGVLSPNEGQIVFKGRPLKLGSPREAIKHRIGMVHQHFMLVPNLTVAENYVLGQGSPFSMIRDMRAVHARILELSDRYGLDVAPDALVSSLSVGERQRVEILKVLYHGIELLILDEPTAVLTPQETDRLLHLLRQLVADGKTVIFISHKLDEVMRVSDRVSVMRDAKVVRTVKTSETTARELARMMVGRDVLMYLPRAPLEPGRVVLSVEHLSCDGEAGLPALRDVSFEVRANEIVGIAGVSGNGQSELALALTGLLPVASGSVTLDGTQLAGLSSYEINQLPMAHIPEDRHRMGIVLPLPLTENVILQRFDKPPFSSRGLLDLNEITRQTRDLMRRFKVKASGPGDRIRNLSGGNQQKLVVGRELDRRFDFLLINQLTRGIDIGATELVMHKILEQRSAGKAILLISTELEELFTLSDRILVMYEGRLVGEIPPDRSRLEEIGLLMAGKSPLSAA | not soluble |
| MGSDKIHHHHHHMMITSKSLNRKSIPAPLPSIAEDVLEGLSRTPKSLPPKLLYDATGSDLFEQITCLPEYYPTRTEAGILTVHAEEICSHLRRNVSVSELGAGTATKTRILLRSLVRQQFGVNYFPLDVSDAALQLAKDEVESELSRVKVHPQLGDFDNLTFLEHQSPPRLVLYIGSSIGNLENDAAIALLQNIARNLSTGDKLLLGADLVKDINVMHAAYNDEAGVTALFNKNLLVRINRELSGHFDPESFCHISFWNEAESRIELHLESACRQAVRIDTLDMTFHFDRGERIHTENSYKYTVEHLENLLRSGGFQVEHTWTDPDSWFAVSLGVIT | not soluble |
| MSLAKTVLVTGASGFIGSHLVGRCLADGCRVKALVRKGNACIDSLRASGVEVIEGDVRDATAVDAAVRESDLVLHAAALTSDWGKMQEFIDINVGGTRNVCEASLRHGVGRLVHVSSFECFDHHLLGRIDEQTPYKARKQSYPDTKIGGTNEVWAAIKRGLSASILYPVWVYGPGDRTLFPLLADSILRRQLFFWARNAPMSMIYIDNLVDLTMLAASRPEAVGEAFMACDGEAITFEEVCRRVAVAIGSPVPSLHLPFGMVRSVAGVMEFVWRIAGSKKRPLLTRQAVDVLASRALADVSKARTMLGWQSHVPQEEGIRRTLEWLVTVDPARWKVKEGHHHHHH | soluble |
| MTSFSLIATAAMGLESVVAEEVRRLGYECQVENGKVTFEGDALAICRANLWLRTADRVKLKVGEFRATTFEELFEQTKALPWADYLPKDAEFPVIGKSVKSTLFSVSDCQAIVKKAVVESLKARYHLSWFPETGPLYRIEVALHKDIATLTIDTSGAGLHKRGYRARQGEAPLRETLAAALVLLTNWTPDRPFVDPFCGSGTIAIEAALIGQNIAPGFNRDFVSEQWPWIGESVWEEARQEAEQMARYDQPLDICGIDLDPHMVEIAKMNAAEAGLSDLISFREGRAEQFRTDAQYGVIVGNPPYGERLGEQREVEALYRAIGRAFAALDTWSVYILTAHRGFETHYGRPATKRRKLFNGFIETHYYQYWGPRPPREARS | not soluble |
| MKLAVAGKGGVGKTTVAAGLIKIMASDYDKIYAVDGDPDSCLGQTLGLSIEEAYAITPLIEMKDEIREKTGDGGLLILNPKVDGDLDKYGRYIDDKIFLIRMGEIKKGGSQCYCRENSFLGSVVSALFLDKKEAVVMDMGAGIEHLTRGTAKAVDMMIAVIEPNLNSIKTGLNIEKLAGDLGIKKVRYVINKVRNIKEEKLIKKHLPEDKILGIIPYNELFIELSLKGEEIWQSTNPAFVNLHDIYQKLRLEVG | soluble |
| MTYLLLDYFDEKFPDEKAVKEMKPFRRHRWFFKEGTTNYSHSERNKLPEGAAYAGHRTPLISGECKVYGCWPNGYDNVGEEEWAKIPTDARQKFKAALNDTAEIVVSGIECRRSFQYIDDKLLSAMDNYSELEKLPVAYSFSATKFYPSLIPFLETRWTATKLDWKNHGQNNLDLSRTHLREITLDGEGLKSVSLPESCRTISFSSTLSPELKVYSPDGGSNLTLKIELEADHVPDVGLPQLEILVLDRAVKLDLLPVTNLYPNLYYLRICGKPGYLSNISSLRNLKTLEVLSLEEIFGFTAEEFPTPGTCPLLNTLWMESIPEEAGKQIKKKYKGKITELDIRKLRKPEWLAENLDNPLRHWDGSEFVPPAKFKKAVVIYRNARRDALVAANQYLIDRDAALLQNRLEQTGKEFVIAFNKLDGKSGFIETEEREDLCAAFQVILDAVDSSVNFLGFTMNHDRIWEIMNEHRDW | not soluble |
| MAHHHHHHMGQISSKEDEIEKQNIYATYPGLEQQLDMVFACHDISKQGKLSYKTVEMILRHFLMQCGFMEYVCRFVDENGTLDLKHVSNYLSIKKLMYKLKCCGESMLTLDEMKELVIIFLKKISDTYTEDQTKWLEQMKSSQEQQDKALEEAMYKYEKNILFHHAVKEQQILQNDKKLNEWNENVENAYEAQQEILRQFESSRKKNIDISLEKNNELIIAKDYIDKIKEAATDNKYDNSKCFIYPASSAPCGACTSAGAIIHHRRYKEKRRKKEYSLCL | not soluble |
| MRNELNSNEYNLMASRQSRKILTGTLAAMENVKIGQDENVDCGVVFYDEFKILIPIREMNVSREDKRVIRSMIGAEIDFIVMEFDDENRTAIASRKEAMELRKNLELKKHKVGEKIFVRVTSVGRNNCRVDCYGIEYRVPINEIDYGYIDKVDKYVQVGDVVPAIIKELDIDNNIVVVSIKEAKEDPYLGIVKSLNKGGEYLGVVTGIKDYGIFLTIRKGVNCLCPFPNWANFSPAVGEKFVVRIKSINYDEKKINANLMRPINQRNKYNPTWGLGLEHHHHHH | soluble |
| MVSEAEFMAALAKFAETSATASAAADRVIAVANVDASRIADEFNALLGWAMKIATLLLEEISKNPSLKAEMAESHQMLFGNLGTIVPALLKFGPYINQILGNFGLSLGKLFGIVLAF | not soluble |
| MGSDKIHHHHHHMFLYELFKEQRKLYNFTQEEFYEGIFKKRAASSFEVHNTHDLKVKDLPVLSDRSMMSILEIIHYAKEEFISPYDEDLNSLFDIFQNNTEKENKDYIYKLYKKSIELKEHSIIYWNLYLIIKIQCSEYDSRIVPTDSQDLSELKKMILSKQKFTLYDYKIVTNLSLVFSYKELQPFLSSLFPLDSNAPTVTSEAAYYLLENITTKLVQNRDFESCTEVLNIYNDLLQKFPSYKYKLNYLITYNLVGYFLTNNMDSLNNSIKYVDLLGDLENVELAKLMKDNIYLMISKKNNGSMSKPDTLLTKENNHIKLNEKKITKRLE | not soluble |
